Test results published in the supplement of paper PMC10126150.
± gives the standard deviation of the averaged measurements.

These sequences were tested on ATP (assay: switch fluorescence ratio, 500 uM ATP over buffer (Cy3 cluster intensity, sum of 5 cycles each) (fold (ratio)); higher = stronger signal-on switching upon ATP binding; sequences stand for … in TCGTCGGCAGCGTCAGATGTGTATAAGAGACAGTTTTTTTTTTTTTTTTTTTTTTTTT…TC). Details: aptamer strand: ATP DNA aptamer (quencher-CACCTGGGGGAGTATTGCGGAGGAAGG + anchor), 100 nM annealed; ATP concentration: 500 uM.
How it was run: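 Clusters with intensities outside 100-1000 RFU were excluded. The remaining Cy3-labelled switching-strand clusters on a modified Illumina MiSeq flow-cell had been annealed to 100 nM quencher-labelled ATP aptamer and imaged in selection buffer, then after 15 min with 500 uM ATP at 22 °C, for five cycles separated by NaOH stripping and re-annealing. The fluorescence ratio, averaged per switch-domain sequence, is each cluster's summed target-cycle Cy3 intensity over its summed buffer-cycle Cy3 intensity.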
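Also: ATP exposure 15 min at 22 °C before imaging.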

Sequence | switch fluorescence ratio
GACCTATGGA | 0.997 ± 0.0037
GACCTTAATT | 1.01 ± 0.025
GACCTTGACG | 1.02 ± 0.022
GACCTTGGTG | 1.03 ± 0.083
GACCTTTCTG | 0.997 ± 0.025
GACCTTTGAG | 1.017 ± 0.0045
GACCTTTTT | 1.02 ± 0.042
GACCTTTTTC | 1.03 ± 0.068
GACGACGGGG | 1.05 ± 0.028
GACGATGCCA | 1.16 ± 0.035
GACGCAGGGT | 1.34 ± 0.25
GACGCATATG | 2.03 ± 0.098
GACGCCGGGT | 1.03 ± 0.02
GACGCCGGTC | 1.25 ± 0.27
GACGCGGAAC | 5.48 ± 0.37
GACGGAACGG | 1.04 ± 0.022
GACGGAAGCA | 1.38 ± 0.11
GACGGCGTCG | 0.974 ± 0.011
GACGGCTTGG | 1.02 ± 0.025
GACGGGCGGC | 0.984 ± 0.02
GACGGGCTGG | 0.989 ± 0.024
GACGGGCTGT | 0.985 ± 0.029
GACGGGGAAA | 1.01 ± 0.028
GACGGGGCG | 0.97 ± 0.057
GACGGTTGTG | 1 ± 0.012

Sequence | switch fluorescence ratio
GACGTAGGTC | 1 ± 0.029
GACGTAGTTT | 1.014 ± 0.0021
GACGTGACAA | 1.168 ± 0.0021
GACGTGACGA | 1.15 ± 0.019
GACGTGGTTT | 0.994 ± 0.046
GACGTTCGGC | 0.991 ± 0.026
GACTAAGTGT | 1 ± 0.022
GACTACTGTA | 1.04 ± 0.051
GACTAGACGG | 1.13 ± 0.041
GACTAGGTTT | 1.04 ± 0.013
GACTATCGGA | 1.03 ± 0.013
GACTATGAGA | 0.9936 ± 0.0039
GACTATGGTT | 0.986 ± 0.051
GACTATGTTT | 1 ± 0.044
GACTCAAGTT | 1.048 ± 0.0054
GACTCAATGG | 1.14 ± 0.03
GACTCAGTTG | 0.9947 ± 0.0084
GACTCGAGGC | 1.05 ± 0.06
GACTCGGTGC | 1.05 ± 0.019
GACTCTGAGT | 1.01 ± 0.017
GACTCTTGAA | 0.995 ± 0.071
GACTGATCGT | 1.008 ± 0.0059
GACTGATTGG | 1.02 ± 0.012
GACTGGCTGG | 1 ± 0.03
GACTGGGGTA | 0.988 ± 0.011

Sequence | switch fluorescence ratio
GACTGGGTG | 1.04 ± 0.014
GACTGGGTTG | 0.9668 ± 0.0011
GACTGTGATC | 1.037 ± 0.0042
GACTGTTCGG | 0.985 ± 0.025
GACTTAGAAT | 1 ± 0.0026
GACTTATCTA | 1.016 ± 0.0073
GACTTCGTGG | 1.01 ± 0.056
GACTTGATTA | 0.9719 ± 0.0062
GACTTGGGAT | 1.034 ± 0.0019
GACTTGGGGC | 0.993 ± 0.037
GACTTTACGG | 1.06 ± 0.048
GACTTTGGAG | 1 ± 0.027
GACTTTGGGA | 0.999 ± 0.023
GACTTTGTGC | 0.9772 ± 0.0022
GACTTTTCTT | 0.971 ± 0.033
GACTTTTTGG | 0.998 ± 0.027
GAGAAACCGG | 1.03 ± 0.019
GAGAAATGTG | 1.03 ± 0.011
GAGAAGAAGC | 1 ± 0.025
GAGAAGGATT | 0.99 ± 0.046
GAGAATCGGA | 0.965 ± 0.012
GAGACATTGG | 1 ± 0.062
GAGACCTATT | 0.993 ± 0.035
GAGAGCTATC | 0.9848 ± 0.0024
GAGAGCTTGT | 0.956 ± 0.027

Sequence | switch fluorescence ratio
GAGAGGAGGT | 1.022 ± 0.0029
GAGAGGGAGG | 0.979 ± 0.015
GAGAGGGATT | 1.03 ± 0.015
GAGAGGGGAA | 1.01 ± 0.009
GAGAGGGGAG | 0.983 ± 0.025
GAGAGGGGGA | 0.97 ± 0.036
GAGAGGGGGG | 1 ± 0.025
GAGAGGGTTT | 1 ± 0.011
GAGAGTAATT | 1.01 ± 0.051
GAGAGTATTT | 0.995 ± 0.073
GAGAGTGGGG | 0.985 ± 0.037
GAGAGTTGGT | 1.007 ± 0.0073
GAGAGTTTAA | 1.013 ± 0.0051
GAGATAAAAG | 1.01 ± 0.03
GAGATAGTGT | 0.991 ± 0.036
GAGATAGTTT | 0.995 ± 0.042
GAGATGAGGA | 0.97 ± 0.024
GAGATGGGGT | 0.995 ± 0.016
GAGATGTCTT | 0.9833 ± 0.0078
GAGATTGGGA | 1.04 ± 0.045
GAGATTTAGG | 0.969 ± 0.034
GAGATTTATT | 0.985 ± 0.057
GAGATTTCAT | 0.982 ± 0.036
GAGATTTGGA | 1.03 ± 0.029
GAGCAAAAAG | 1.05 ± 0.042

Sequence | switch fluorescence ratio
GAGCAACCTT | 1.45 ± 0.014
GAGCAGAGGT | 0.984 ± 0.011
GAGCAGGTTT | 1.6 ± 0.92
GAGCCCAGGG | 1.96 ± 0.82
GAGCCGCCAG | 1.03 ± 0.045
GAGCCTCGGA | 1.29 ± 0.44
GAGCGATGGT | 1.12 ± 0.021
GAGCGCGATT | 1.03 ± 0.036
GAGCGGTATC | 0.997 ± 0.043
GAGCGTGTGA | 1.02 ± 0.019
GAGCTAGGAA | 0.981 ± 0.058
GAGCTAGGGA | 1.011 ± 0.0013
GAGCTATGGG | 0.983 ± 0.043
GAGCTATTCG | 1.01 ± 0.047
GAGCTCGTGG | 1.03 ± 0.051
GAGCTGACTT | 1.02 ± 0.016
GAGCTGGGTG | 1.09 ± 0.043
GAGCTGTATG | 1.03 ± 0.014
GAGCTTCTCT | 1.0194 ± 9.9e-05
GAGCTTTTGG | 1.03 ± 0.068
GAGGAAATGG | 1.024 ± 0.0046
GAGGAAATTG | 0.963 ± 0.054
GAGGAAGTCT | 1.03 ± 0.026
GAGGAATGGC | 0.9828 ± 0.0022
GAGGAGCTTG | 0.94 ± 0.096

Sequence | switch fluorescence ratio
GAGGAGGGAG | 0.998 ± 0.014
GAGGAGGTTG | 1.027 ± 0.003
GAGGATGTTA | 1.03 ± 0.036
GAGGCAGAAA | 1.09 ± 0.044
GAGGCAGAAT | 1.03 ± 0.012
GAGGCGTACG | 1.04 ± 0.021
GAGGCGTGTG | 0.985 ± 0.029
GAGGCTTGGG | 0.99 ± 0.011
GAGGGAAACA | 1.01 ± 0.017
GAGGGAAACT | 1.05 ± 0.11
GAGGGAATCG | 0.9635 ± 0.001
GAGGGAGAAA | 1.03 ± 0.038
GAGGGAGATG | 1.03 ± 0.018
GAGGGATATA | 0.996 ± 0.043
GAGGGATGTA | 1.01 ± 0.022
GAGGGATTGG | 1.05 ± 0.12
GAGGGCACGA | 1.09 ± 0.086
GAGGGCAGCA | 1.01 ± 0.048
GAGGGCCTCA | 1 ± 0.033
GAGGGCGGGA | 1.01 ± 0.047
GAGGGCGTTT | 0.98 ± 0.027
GAGGGCTTTT | 0.98 ± 0.017
GAGGGGAAAA | 0.99 ± 0.04
GAGGGGAGGG | 1.04 ± 0.065
GAGGGGATTT | 1.01 ± 0.013

Sequence | switch fluorescence ratio
GAGGGGCCTG | 1.01 ± 0.083
GAGGGGCGCC | 0.987 ± 0.016
GAGGGGCGGT | 1.02 ± 0.026
GAGGGGCGTG | 1 ± 0.022
GAGGGGCTGG | 0.984 ± 0.046
GAGGGGGACT | 1.13 ± 0.19
GAGGGGGAGC | 1.03 ± 0.089
GAGGGGGATG | 0.979 ± 0.026
GAGGGGGGAT | 1.01 ± 0.033
GAGGGGGGGA | 1 ± 0.044
GAGGGGTGTC | 0.978 ± 0.03
GAGGGGTTG | 0.988 ± 0.034
GAGGGTATTA | 1.02 ± 0.019
GAGGGTCGTG | 0.9629 ± 0.0013
GAGGGTCTTT | 0.969 ± 0.025
GAGGGTGCAT | 0.987 ± 0.043
GAGGGTTCCG | 1.01 ± 0.026
GAGGGTTGAA | 0.999 ± 0.033
GAGGTAAGTG | 0.954 ± 0.024
GAGGTACGTA | 1.01 ± 0.027
GAGGTAGCTA | 1.03 ± 0.0051
GAGGTAGGGA | 1.06 ± 0.13
GAGGTAGTCT | 1.07 ± 0.14
GAGGTCCACT | 1.01 ± 0.044
GAGGTCGGGC | 0.94 ± 0.039

Sequence | switch fluorescence ratio
GAGGTCTGTG | 0.965 ± 0.018
GAGGTGAAAT | 1.01 ± 0.027
GAGGTGACTG | 1.01 ± 0.015
GAGGTGAGTG | 0.9921 ± 0.0066
GAGGTGATAG | 1.036 ± 0.0033
GAGGTGTAGA | 1.05 ± 0.022
GAGGTGTAGG | 1.01 ± 0.02
GAGGTGTTCA | 1.01 ± 0.02
GAGGTTCCCG | 0.984 ± 0.051
GAGGTTCGGT | 1.019 ± 0.0037
GAGGTTGGGG | 1.02 ± 0.059
GAGGTTGTTT | 0.977 ± 0.02
GAGGTTTAGA | 0.98753 ± 9.8e-05
GAGGTTTGTA | 0.974 ± 0.013
GAGTAAGACA | 0.99 ± 0.013
GAGTAATGCG | 0.943 ± 0.066
GAGTACCACT | 1.01 ± 0.078
GAGTAGATGT | 0.983 ± 0.011
GAGTAGGGTA | 1.01 ± 0.016
GAGTATATGT | 0.9998 ± 0.0099
GAGTATCTAG | 0.986 ± 0.038
GAGTATGTGG | 0.9516 ± 0.0029
GAGTCAATTT | 1.0118 ± 0.00063
GAGTCACGTC | 0.9468 ± 0.0088
GAGTCATGCG | 0.911 ± 0.093
